Results published in publication doi:10.1101/2022.10.11.511805 (bioRxiv, 2022).

B1: REGN3479 (maftivimab) (antibody, V domains shown)
VH: EVQLVESGGGLVQPGGSLRLSCAASGFTSSSYAMNWVRQAPGKGLEWVSTISGMGGSTYYADSVKGRFTISRDNSKNTLYLQMNSLRAEDTAVYYCAKRGYPHSFDIWGQGTMVTVSS
VL: not shown
B2: REGN3470 Fab (Fab, V domains shown)
VH: QVQLVESGGGVVQPGRSLRLSCAASGFTFNNYGMHWVRQAPGMGLEWVAVIWHDGSDKYYADSVKGRFTISRDNSKNTLYLQMNSLRAEDTAVYYCARNWNLFDYWGQGTLVTVSS
VL: DIQMTQSPSSLSASVGDRITITCRASQSISTYLHWYQQKPGKAPKLLIYAASTLQSGVPSRFSGSGSGTDFTLTISSLQPEDFATYYCQQSFSTPPINFGQGTKLEIK
B3: REGN3471 (odesivimab) (antibody, V domains shown)
VH: EVQLVESGGGLVQPGGSLRLSCAASGFTFSSYDMHWVRQATGKGLEWVSAIGTAGDTYYPGSVKGRFTISRENAKNSLYLQMNSLRAGDTAVYYCARTWFGELYFDYWGQGTLVTVSS
VL: not shown

Columns and labels:
[1] = molecular target: T1, cleaved GP (GPCL): EBOV GP treated with thermolysin, glycan cap removed (Zaire ebolavirus, Mayinga-76, UniProt Q05320); test: SPR
[2] = molecular target: T1, cleaved GP (GPCL): EBOV GP treated with …; test: SEC
Target sequence in this assay (Q05320 33-501, chain 1 of 2): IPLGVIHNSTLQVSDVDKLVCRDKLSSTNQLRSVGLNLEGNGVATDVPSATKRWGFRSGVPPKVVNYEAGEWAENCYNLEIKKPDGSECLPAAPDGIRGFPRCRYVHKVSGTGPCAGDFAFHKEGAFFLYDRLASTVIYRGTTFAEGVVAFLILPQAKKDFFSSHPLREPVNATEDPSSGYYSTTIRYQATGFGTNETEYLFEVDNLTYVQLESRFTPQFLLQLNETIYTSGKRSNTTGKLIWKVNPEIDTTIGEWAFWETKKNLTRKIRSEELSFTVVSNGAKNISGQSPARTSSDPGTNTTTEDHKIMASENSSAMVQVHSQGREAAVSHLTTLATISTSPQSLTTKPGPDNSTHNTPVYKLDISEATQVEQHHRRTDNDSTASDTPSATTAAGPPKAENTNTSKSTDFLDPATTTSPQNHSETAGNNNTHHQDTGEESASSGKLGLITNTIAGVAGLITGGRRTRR
Target sequence in this assay (Q05320 33-650, chain 2 of 2): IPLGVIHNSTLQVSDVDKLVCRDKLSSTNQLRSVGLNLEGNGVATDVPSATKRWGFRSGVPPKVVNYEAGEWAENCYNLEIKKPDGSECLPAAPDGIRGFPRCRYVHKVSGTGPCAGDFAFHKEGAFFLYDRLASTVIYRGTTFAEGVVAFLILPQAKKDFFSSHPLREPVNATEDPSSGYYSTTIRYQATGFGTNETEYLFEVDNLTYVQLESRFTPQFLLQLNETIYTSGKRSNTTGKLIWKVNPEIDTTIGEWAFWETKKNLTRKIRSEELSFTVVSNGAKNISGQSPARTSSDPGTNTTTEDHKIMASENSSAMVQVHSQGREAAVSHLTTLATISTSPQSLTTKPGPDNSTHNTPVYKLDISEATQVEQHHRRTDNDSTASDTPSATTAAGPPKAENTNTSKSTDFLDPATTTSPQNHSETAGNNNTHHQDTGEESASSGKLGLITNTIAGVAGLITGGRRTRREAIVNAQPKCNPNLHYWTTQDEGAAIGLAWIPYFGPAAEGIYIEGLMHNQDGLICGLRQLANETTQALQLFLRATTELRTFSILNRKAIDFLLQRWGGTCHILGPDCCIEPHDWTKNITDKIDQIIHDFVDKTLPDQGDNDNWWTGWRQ

Binder	Kd [1] [nM]	binding result [2]	fold reduction of the binding half-life relative to GP [1] [fold]
B1	0.14		
B2		no binding	
B3	15.8		4
